Consider 84 variants from the RNAGym collection of RNA variant scans (doi:10.1093/molbev/msab373).

The labels stand for the following.
B1: Azoarcus group I ribozyme (parent)
chain: GUGCCUUGCGCCGGGAAACCACGCAAGGGAUGGUGUCAAAUUCGGCGAAACCUAAGCGCCCGCCCGGGCGUAUGGCAACGCCGAGCCAAGCUUCGGCGCCUGCGCCGAUGAAGGUGUAGAGACUAGACGGCACCCACCUAAGGCAAACGCUAUGGUGAAGGCAUAGUCCAGGGAGUGGCGAAAGUCACACAAACCGG

The variants in the data set derive from B1. The experiment in a line: reverse-splicing fitness (ratio to wild type); higher = more active; in vitro selection; Mg2+ level not given. Put shortly: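 An in vitro group I ribozyme library with randomized positions was T7-transcribed and gel-purified. In triplicate, 10 pmol RNA in EPPS pH 7.5 was reacted with 50 pmoles of a 30-nt RNA substrate for 1 h at 37 °C across several added MgCl2 levels (1–48 mM), then stopped with EDTA. Products were reverse transcribed from a substrate-complementary primer, PCR-amplified and sequenced (HiSeq 4000). Fitness is a variant's read proportion after selection over that before, normalised to wild type.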
For C82A A111U A145U C150G C169G U176C, the reverse-splicing fitness stood at 0.00625.
The same measure for C82A A111U A145U C150G C169U U176A: 0.00775.
As for C82A A111U A145U C150G C169U U176G, the reverse-splicing fitness amounted to 0.00727.
On to C82A A111U A145U C150G C169U U176C, for which the reverse-splicing fitness is 0.0122.
Turning to C82A A111U A145C C150A C169A U176C, the reverse-splicing fitness amounted to 0.00757.
For C82A A111U A145C C150A C169A U176A, the reverse-splicing fitness was 0.0149.
As for C82A A111U A145C C150A C169A U176G, the reverse-splicing fitness amounted to 0.00855.
Take C82A A111U A120U A145U C150A C169U U176A: the reverse-splicing fitness stood at 0.00317.
The same measure for C82A A111U A120U A145U C150A C169U U176C: 0.00277.
On to C82A A111U A120U A145U C150A C169U U176G, for which the reverse-splicing fitness is 0.00245.
C82A A111U A145G C150G: the reverse-splicing fitness was 0.0263.
The figure for C82A A111U A145G C150U is 0.222.
The figure for C82A A111U A145G C150A is 0.0371; for C82A A111U A120U A145U C169G U176C it is 0.00323.
Regarding C82A A111U A120U A145U C169G U176A, the reverse-splicing fitness was 0.00291.
C82A A111U A120U A145U C169G U176G: the reverse-splicing fitness stood at 0.00199.
The figure for C82A A111U A145C C150A C169A is 0.00947; for C82A A111U A145C C150A C169G it is 0.00849.
The figure for C82A A111U A145C C150A C169U is 0.011; for C82A A111U A145U C150A C169G U176C it is 0.0188; for C82A A111U A145U C150A C169G U176A it is 0.0157.
The same measure for C82A A111U A145U C150A C169G U176G: 0.00712.
For C82A A111U A145C C150A U176A, the reverse-splicing fitness was determined as 0.0125.
The same measure for C82A A111U A145C C150A U176C: 0.0157; for C82A A111U A145C C150A U176G: 0.00842; for C82A A111U A120U A145G C169U U176A: 0.00414.
With C82A A111U A120U A145G C169U U176G, the reverse-splicing fitness came out at 0.00182.
The same measure for C82A A111U A120U A145G C169U U176C: 0.00428; for C82A A111U A145C C150G C169G U176G: 0.00637.
The figure for C82A A111U A145C C150G C169G U176A is 0.00985; for C82A A111U A145C C150G C169G U176C it is 0.00829.
Turning to C82A A111U A145C C150A C169G U176G, the reverse-splicing fitness came out at 0.00831.
As to C82A A111U A145C C150A C169G U176A, the reverse-splicing fitness was found to be 0.029.
The figure for C82A A111U A145C C150A C169G U176C is 0.0169.
Turning to C82A A111U A145U C150G U176A, the reverse-splicing fitness turned out to be 0.01.
The figure for C82A A111U A145U C150G U176G is 0.00528.
The figure for C82A A111U A145U C150G U176C is 0.0189; for C82A A111U A120U C150U U176G it is 0.00345; for C82A A111U A120U C150U U176C it is 0.00953.
The figure for C82A A111U A120U C150U U176A is 0.00753.
As for C82A A111U A120U A145U C169U U176G, the reverse-splicing fitness is 0.00208.
For C82A A111U A120U A145U C169U U176C, the reverse-splicing fitness worked out at 0.00325.
The figure for C82A A111U A120U A145U C169U U176A is 0.00289; for C82A A111U A145G C150G C169U U176A it is 0.0134.
The same measure for C82A A111U A145G C150G C169U U176C: 0.0142; for C82A A111U A145G C150G C169U U176G: 0.00787; for C82A A111U A145U C169G U176G: 0.00625.
Turning to C82A A111U A145U C169G U176A, the reverse-splicing fitness came out at 0.0127.
For the variant C82A A111U A145U C169G U176C, the reverse-splicing fitness stood at 0.0142.
The same measure for C82A A111U A120U C150A C169G: 0.00511; for C82A A111U A120U C150A C169A: 0.00615.
The same measure for C82A A111U A120U C150A C169U: 0.00495; for C82A A111U A120U A145U C150A C169A: 0.00286.
The figure for C82A A111U A120U A145U C150A C169G is 0.00274.
As for C82A A111U A120U A145U C150A C169U, the reverse-splicing fitness amounted to 0.00298.
For the variant C82A A111U A120U A145U C150G C169A U176C, the reverse-splicing fitness was 0.00325.
The figure for C82A A111U A120U A145U C150G C169A U176A is 0.00398; for C82A A111U A120U A145U C150G C169A U176G it is 0.00285; for C82A A111U A120U A145U C150A U176G it is 0.00236.
With C82A A111U A120U A145U C150A U176A, the reverse-splicing fitness amounted to 0.00486.
The same measure for C82A A111U A120U A145U C150A U176C: 0.00625; for C82A A111U A145G C150A C169A U176G: 0.00853; for C82A A111U A145G C150A C169A U176C: 0.0242.
The figure for C82A A111U A145G C150A C169A U176A is 0.0197; for C82A A111U A120U A145U C150U C169U U176C it is 0.00339; for C82A A111U A120U A145U C150U C169U U176A it is 0.00333.
The figure for C82A A111U A120U A145U C150U C169U U176G is 0.00299; for C82A A111U A145G C150U U176G it is 0.0191.
For C82A A111U A145G C150U U176A, the reverse-splicing fitness is 0.0694.
For the variant C82A A111U A145G C150U U176C, the reverse-splicing fitness amounted to 0.115.
The figure for C82A A111U A120U A145U C150U C169U is 0.00362; for C82A A111U A120U A145U C150U C169A it is 0.00293; for C82A A111U A120U A145U C150U C169G it is 0.00407.
The figure for C82A A111U A145U C150U C169A is 0.00985; for C82A A111U A145U C150U C169U it is 0.0124; for C82A A111U A145U C150U C169G it is 0.00969.
The figure for C82A A111U A120U A145U C150G is 0.00631; for C82A A111U A120U A145U C150A it is 0.00619; for C82A A111U A120U A145U C150U it is 0.0173.
For the variant C82A A111U A120U C150G C169A U176C, the reverse-splicing fitness amounted to 0.00557.
The figure for C82A A111U A120U C150G C169A U176G is 0.00311.
The figure for C82A A111U A120U C150G C169A U176A is 0.00623.
The same measure for C82A A111U A120U A145U C150A C169A U176A: 0.00303.
In the case of C82A A111U A120U A145U C150A C169A U176G, the reverse-splicing fitness amounted to 0.00212.
